Measurements reported in US20090041783A1 (MOCHIDA PHARMACEUTICAL, published 2009).
Positions count from the first letter of the chain named. Each block holds one binder with its values, some of them ahead of it.

How the values were obtained:
[1] = target: T1, human GPVI extracellular region-human Fc fusion protein (hGPVI-hFc) (human); experiment: ELISA on immobilised hGPVI-hFc; + A450 0.5-1.0, ++ 1.0-2.0, +++ more than 2.0
T1 construct: Expressed in COS-1, purified on Protein A; also called GPVI-HHH-hFc; hGPVIHHH-hFc
T1 sequence (chain, as listed by the source limits assumed): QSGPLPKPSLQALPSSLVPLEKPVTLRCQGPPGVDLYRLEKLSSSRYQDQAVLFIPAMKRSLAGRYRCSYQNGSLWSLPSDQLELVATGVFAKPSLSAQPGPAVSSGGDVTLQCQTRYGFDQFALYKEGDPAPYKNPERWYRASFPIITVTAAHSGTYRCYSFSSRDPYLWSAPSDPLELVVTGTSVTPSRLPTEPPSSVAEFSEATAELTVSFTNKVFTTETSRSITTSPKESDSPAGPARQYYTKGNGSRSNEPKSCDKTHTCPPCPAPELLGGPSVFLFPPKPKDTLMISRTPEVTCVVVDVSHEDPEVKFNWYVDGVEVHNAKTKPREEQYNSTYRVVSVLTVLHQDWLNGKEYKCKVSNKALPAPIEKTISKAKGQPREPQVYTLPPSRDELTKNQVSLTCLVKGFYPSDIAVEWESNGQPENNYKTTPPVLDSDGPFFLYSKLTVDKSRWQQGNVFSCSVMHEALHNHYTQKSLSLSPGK
Experimental: The hGPVI-hFc prepared by EXAMPLE 1B was diluted with D-PBS to 2 μg/mL and added to immunoplate (Maxisorp NUNC) at 50 μL/well. After incubation at 37° C. for one hour, the well was washed five times with ion-exchanged water, and D-PBS (pH7.4) containing 2% StabilGuard (Surmodics) was added to each well in 100 μL for blocking. Next, culture supernatant was added to each well and incubated at 37° C. for one hour. After incubation, the well was washed three times with the saline containing 0.05% Tween20. Peroxidase-labeled anti-mouse immunoglobulin antibody (DAKO, P260) was 1000-fold diluted with D-PBS containing 10% rabbit serum and added to each well at 50 μL. After incubation at 37° C. for one hour, washing in a similar manner was performed and TMB solution (BioFix) was added to each well. After ten minutes at room temperature, the reaction was terminated with 0.5 M sulfuric acid solution. Subsequently, absorbance at 450 nm was measured with the plate spectrophotometer (Multiscan JX, Dainippon Pharmaceutical). As a result, the cell whose culture supernatant reacted to hGPVI-hFc was selected and a cloning with limiting dilution method (“The Introduction to Monoclonal Antibody Experimental Procedure” written by Tamie Andoh and Takeshi Chiba (Kodansha, p 83)) was performed. Eight days later, screening was done in a similar manner and the antibody which reacts to hGPVI-hFc was selected.
(§1) To analyze a property for each antibody obtained in EXAMPLE 13, binding to human GPVI-hFc, competition with F1232-37-2 described in EXAMPLE 4 and specificity for L9 loop were investigated. That is, as for the binding to human GPVI, according to the method of EXAMPLE 2, a binding activity to immobilized antigen was measured. For the binding activity, the range of absorbance from 0.5 to 1.0 is represented by “+”, from 1.0 to 2.0 by “++”, the range more than 2.0 by “+++”. The competitive test with F1232-37-2 was performed as follows. That is, according to the method by Nakane et al. (J. Histochem. Cytochem., 22, 1084, 1974), peroxidase (TOYOBO)-labeled F1232-37-2 antibody was prepared and an antibody concentration was calculated from the amount of the antibody used.

[2] = target: T1, human GPVI extracellular region-human …; experiment: competition ELISA on hGPVI-hFc plate; competitor: peroxidase-labelled F1232-37-2; +++ more than 50%, ++ 30-50%, + 10-30% inhibition
Experimental: as §1
Next, by using the peroxidase-labeled antibody, the competitive test for a variety of purified antibody was performed. That is, 25 μL of the above labeled antibody and 25 μL of each purified antibody were added to well of hGP-hFc-immobilized plate. After incubation at 37° C. for one hour, the well was washed five times with the saline containing 0.05% Tween20, and the reaction mixture was developed with TMB solution (BioFix). After incubation at room temperature for 10 minutes, the reaction was terminated with 0.5 M sulfuric acid solution and an absorbance at 450 nm was measured with the plate spectrophotometer (Multi-Scan JX, Dainippon Pharmaceutical).

[3] = target: T1, human GPVI extracellular region-human …; experiment: ELISA, collagen on plate, hGPVI-hFc plus antibody; +++ more than 50%, ++ 30-50%, + 10-30% inhibition
[4] = target: T1, human GPVI extracellular region-human …; experiment: ELISA of hybridoma culture supernatant on coated hGPVI-hFc (selection criterion)
Experimental: Next, culture supernatant was added to each well and incubated at 37° C. for one hour. After incubation, the well was washed three times with the saline containing 0.05% Tween20. Peroxidase-labeled anti-mouse immunoglobulin antibody (DAKO, P260) was 1000-fold diluted with D-PBS containing 10% rabbit serum and added to each well at 50 μL. After incubation at 37° C. for one hour, washing in a similar manner was performed and TMB solution (BioFix) was added to each well. After ten minutes at room temperature, the reaction was terminated with 0.5 M sulfuric acid solution. Subsequently, absorbance at 450 nm was measured with the plate spectrophotometer (Multiscan JX, Dainippon Pharmaceutical). As a result, the cell whose culture supernatant reacted to hGPVI-hFc was selected and a cloning with limiting dilution method (“The Introduction to Monoclonal Antibody Experimental Procedure” written by Tamie Andoh and Takeshi Chiba (Kodansha, p 83)) was performed. Eight days later, screening was done in a similar manner and the antibody which reacts to hGPVI-hFc was selected.
After one week, hybridoma, which produces a desired antibody was screened using the binding property to hGPVI-hFc and hGPVI-mL9-hFc prepared in EXAMPLE 7 as an index. That is, the purified hGPVI-hFc or hGPVI-mL9-hFc, which was prepared in EXAMPLE 1, was diluted with D-PBS (pH7.4) to 1 μg/mL. And 50 μL/well of the solution was added to make hGPVI-hFc or hGPVI-mL9-hFc-coated plate using the same method as that of EXAMPLE 2. Next, a culture supernatant was added to each well, and after incubation at room temperature for one hour, by the same method as that of EXAMPLE 2, using peroxidase-labeled anti-mouse immunoglobulin antibody (DAKO, P260) a reaction was performed to measure an absorbance. As a result, the cell producing an antibody that binds to the purified hGPVI-hFc (absorbance: equal to or more than one), but not hGPVI-mL9-hFc (abdorbance: equal to or less than 0.5) was selected and cloned by the method described in EXAMPLE 2. Eight through ten days later, a screening was done as with the similar way to obtain a hybridoma producing an L9-specific mouse anti-human GPVI antibody. As with EXAMPLE 2B (3), the obtained hybridoma was cultured and a monoclonal antibody was purified. The sub-type of each antibody was determined using IsoStrip Mouse Monoclonal antibody Isotyping Kit (Roche).

- absorbance [1]: > 2 od
B1: F1257-3-1 (antibody, V domains shown)
VH: QVTLKESGPGMLQPSKTLSLTCSFSGFSLSTSGMVVSWIRQPSGKSLEWLAAIDWDGDKYYNPSLKSRLTVSKDTSNTQVFLKISSVDIADTATYYCARTPYYGYKEAYYFDYWGQGVKVTVSS
VL: DIQMTQSPASLSASLEEIVTITCKASRAIDDYLSWYQQKPGKSPQLLIYDATSLADGVPSRFSGSRSGTQYSLKISRPQVDDSGIYYCLQSYSTPWTFGGGTKLDLKR

- percent inhibition [2]: 30 to 50%
- percent inhibition [3]: 10 to 30%
- absorbance [4]: ≥ 1 absorbance
- absorbance [1]: 0.5 to 1 od
B2: F1249-3-2 (antibody, V domains shown)
VH: EVQLVESGGGLVKPGGSLKLSCAASGFTFSSYGMSWVRQTPDKRLEWVATISSGGSYTYYSDSVKGRFTISRDNAKNNLYLQLSSLKSQDTAIYYCARDSGYFDYWGQGTTLTVSS
VL: NIVLTQSPASLAVSLGQRATISCRASESVDSYGNSFMHWYQQKPGQPPKLLIYLASNLESGVPARFSGSGSRTDFTLTIDPVEADDAATYYCQQNNEDPRTFGGGTKLEIKR

- percent inhibition [2]: 10 to 30%
- absorbance [4]: ≥ 1 absorbance
- absorbance [1]: 1 to 2 od
B3: F1246-1-1 (antibody, V domains shown)
VH: EVQLVESGGDLVKPGGSLKLSCAASGFTFSSYGMSWVRQTPDKRLEWVATISNGGTYTYYPDSVKGRFTISRDNAKNTLYLQMSSLKSDDTAMYYCGRLRDYYAMDYWGQGTSVTVSS
VL: B2 VL with N1D, L54R, V62I, D80N, A87V, N95S, R100W

- percent inhibition [2]: > 50%
- absorbance [4]: ≥ 1 absorbance
- absorbance [1]: > 2 od
B4: F1249-30-1 (antibody, V domains shown)
VH: QVQLQQSGAELVRPGVSVKISCKGSGYTFTDYAMHWVKQSHAKSLEWIGVISTYYGDTSYNQKFKGKAAMTVDKSSSTAYMELARLTSDDSAIYYCARAEDYDPWFAYWGQGTLVTVSA
VL: B2 VL with N1D, L54R, V62I, D80N, A87V, N95S, N96D, R100L, G104A, I110L

- percent inhibition [2]: 10 to 30%
- percent inhibition [3]: 30 to 50%
- absorbance [4]: ≥ 1 absorbance
- absorbance [1]: 0.5 to 1 od
B5: F1249-22-1 (antibody, V domains shown)
VH: QVQLQQPGAELVKPGASVKLSCKASGYTFTSYWMQWVKERPGQGLEWIGEIDPSDSYTNYNQKFKGKATLTVDTSSSTACMQLSSLTSEDSAVYYCARGAITTATLDYWGQGTTLTVSS
VL: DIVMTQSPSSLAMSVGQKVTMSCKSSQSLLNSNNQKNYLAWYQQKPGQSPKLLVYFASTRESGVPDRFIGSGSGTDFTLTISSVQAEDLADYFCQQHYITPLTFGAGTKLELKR

- percent inhibition [2]: 30 to 50%
- absorbance [4]: ≥ 1 absorbance
- absorbance [1]: > 2 od
B6: F1249-20-1 (antibody, V domains shown)
VH: B4 VH with A69T, D89E
VL: DIVLTQSPASLAVSLGQRATISCRASESVDSYGNSFMYWYQQKPGQPPKLLIYRASNLESGIPARFSGSGSRTDFTLTINPVEADDVATYYCQQSDEDPLTFGAGTKLELKR

- percent inhibition [2]: 10 to 30%
- absorbance [4]: ≥ 1 absorbance
- absorbance [1]: 1 to 2 od
B7: F1245-7-1 (antibody, V domains shown)
VH: QVQLQQPGAELVKPGASVKLSCKASGYTFTSYWMHWVKQRPGQGLEWIGMIHPNSGSTNYNEKFKSKATLTVDKSSSTAYMQLSSLTSEDSAVYYCASPVTAVVEYYFDYWGQGTTLTVSS
VL: SIVMTQTPKFLLVSAGDRVTITCKASQSVSNDVAWYQQKPGQSPKLLIYYASNRYTGVPDRFTGSGYGTDFTFTISTVQAEDLAVYFCQQDYSSLTFGSGTKLEIKR

- percent inhibition [2]: 10 to 30%
- percent inhibition [3]: 10 to 30%
- absorbance [4]: ≥ 1 absorbance
- absorbance [1]: 0.5 to 1 od
B8: F1251-1-1 (antibody, V domains shown)
VH: QVNLLQSGAALVKPGASVKLSCKASGYTFTDYYIHWVKQSHGKSLEWIGYINPNSGYTNYNEKFKSKATLTVDKSTNTAYMELSRLTSEDSATYYCTRCNSGYGDWFAYWGQGTLLTVSS
VL: DIQMTQSPPVLSASVGDRVTLSCKASQNINKNLDWYQQKHGEAPKLLIYYTNNLQTDIPSRFSGSGSGTDYTLTISSLQPEDVATFYCYQYNSGPGTFGAGTKLELKR

- percent inhibition [2]: 30 to 50%
- percent inhibition [3]: 10 to 30%
- absorbance [4]: ≥ 1 absorbance
- absorbance [1]: > 2 od
B9: F1245-4-1 (antibody, V domains shown)
VH: QVQLQQPGAELVKPGASVKLSCKASGCTFTSYWMHWVKQRPGQGLEWIGMIHPNSDNTNYNEKFKSKATLTVDKSSSTAYMHLSSLTSEDSAVYYCATHYYDYVDYWGQGTTLTVSS
VL: NIVMTQTPKFLLVSAGDRVTITCKASQSVSNDVAWYQQKPGQSPKLLIYYASNRYTGVPDRFTGSGYGTDFTFTISTVQAEDLAVYFCQQDYSSPWTFGGGTKLEIKR
